Test results published in patent US20160200789A1, “IL4 CONJUGATED TO ANTIBODIES AGAINST EXTRACELLULAR MATRIX COMPONENTS” (PHILOGEN S.P.A., priority 2013, published 2016).

B1: SIP (F8): antibody F8 in SIP format (scFv fused to epsilon-CH4 domain of human IgE) (protein)
chain: EVQLLESGGGLVQPGGSLRLSCAASGFTFSLFTMSWVRQAPGKGLEWVSAISGSGGSTYYADSVKGRFTISRDNSKNTLYLQMNSLRAEDTAVYYCAKSTHLYLFDYWGQGTLVTVSSGGGGSGGGGSGGGGEIVLTQSPGTLSLSPGERATLSCRASQSVSMPFLAWYQQKPGQAPRLLIYGASSRATGIPDRFSGSGSGTDFTLTISRLEPEDFAVYYCQQMRGRPPTFGQGTKVEIKSGGSGGPRAAPEVYAFATPEWPGSRDKRTLACLIQNFMPEDISVQWLHNEVQLPDARHSTTQPRKTKGSGFFVFSRLEVTRAEWEQKDEFICRAVHEAASPSQTVQRAVSVNPESSRRGGC
B2: muTNFR-Fc: extracellular part of the murine p75-TNF receptor appended at the N-terminus of a murine IgG1 Fc portion; murine version of Enbrel (protein)
chain: VPAQVVLTPYKPEPGYECQISQEYYDRKAQMCCAKCPPGQYVKHFCNKTSDTVCADCEASMYTQVWNQFRTCLSCSSSCTTDQVEIRACTKQQNRVCACEAGRYCALKTHSGSCRQCMRLSKCGPGFGVASSRAPNGNVLCKACAPGTFSDTTSSTDVCRPHRICSILAIPGNASTDAVCAPESPTLSAIPRTLYVSQPEPTRSQPLDQEPGPSQTPSILTSLGSTPIIEQSTKGGVPRDCGCKPCICTVPEVSSVFIFPPKPKDVLTITLTPKVTCVVVDISKDDPEVQFSWFVDDVEVHTAQTKPREEQFNSTFRSVSELPIMHQDWLNGKEFKCRVNSAAFPAPIEKTISKTKGRPKAPQVYTIPPPKEQMAKDKVSLTCMITDFFPEDITVEWQWNGQPAENYKNTQPIMDTDGSYFVYSKLNVQKSNWEAGNTFTCSVLHEGLHNHHTEKSLSHSPGK

Experiments:
[1] = target: T1, EDA in the pancreas of diabetic mice (Mus musculus, UniProt P11276); assay: Immunofluorescence staining of pancreas of diabetic mice; details: antibodies in SIP format, 2 μg/ml
T1 construct: from tissue; host or cells: pancreas of streptozotocin-treated diabetic C57BL/6J mice (frozen sections)
Experimental: Type 1 diabetes is an autoimmune disease characterized by progressive destruction of pancreatic beta-cells. IL4 has been previously proposed as a potential medicament for preventing diabetes mellitus type 1 (Walz et al. 2002). Six week old C57BL/6J male mice were treated for 5 consecutive days with Streptozotocin (50 mg/kg by intraperitoneal [i.p.] injection). Blood glucose levels were recorded daily and mice were deemed diabetic if their non-fasted blood glucose levels were >300-400 mg/decilitre (dL). Pancreatic tissue was collected from the diabetic mice and snap frozen before cutting and staining. The staining procedure was performed according to the method set out in Pfaffen et al., Eur. J. Nucl. Med. Mol. Imaging (2010). Briefly, purified antibodies in SIP format (2 μg/ml), including antibody F8 (SEQ ID NO: 69), were added onto the sections and detected with a rabbit […] antibody (Dako). A further incubation with the fluorescently labelled goat anti-rabbit IgG Alexa Fluor 488 antibody (Life Technologies) was performed prior to imaging. Blood vessels and cell nuclei were detected using a rat anti-mouse CD31 antibody (BD Bioscience) followed incubation with a donkey anti-rat Alexa 594 antibody (Life Technologies), and DAPI, respectively. The filled white arrows in FIG. 19 indicate CD31^+ blood vessels. […]

TNF = target: T2, TNF (Homo sapiens, UniProt P01375); assay: Inhibition of TNF-mediated killing of LM fibroblasts; type: cell-based, mouse
T2 construct: host or cells: LM fibroblasts (mouse) as indicator cells
Source text: The murine fusion protein muTNFR-Fc (extracellular part of the murine p75-TNF receptor appended at the N-terminus of a murine IgG1 Fc portion, containing the hinge region) was expressed by stable transfection in CHO cells, according to the supplier's protocol. The fusion protein was purified from the culture supernatant by protein A chromatography, yielding a preparation which was pure in SDS-PAGE analysis and size exclusion chromatography (see FIGS. 2A and B). The biological activity of muTNFR-Fc was tested by inhibition of TNF-mediated killing of LM fibroblasts (see FIG. 2C). TNF inhibitors such as Enbrel™ and Humeira™ represent the standard of care in rheumatoid arthritis patients. muTNFR-Fc is a murine version of a TNF inhibitor for use in mouse models of the disease.

[2] = tested on: imiquimod (IMQ)-induced ear inflammation in C57BL/6 mice; assay: IMQ-induced inflammation model of psoriasis; type: in vivo, mouse; details: day 13
Experimental: C57BL/6 mice (Charles River, Germany) were treated on each side of each ear with 5 mg Aldara cream (containing 0.25 mg Imiquimod). The treatment schedule is illustrated in FIG. 11A. The Aldara cream was applied every day for 5 days (on day 1, 2, 3, 4 5 and […]: each application is illustrated by an asterisk in FIG. 11A). Ear thickness was measured with a caliper before the application of the cream. […] Treatment was repeated on day 9 and 11 (each treatment event is illustrated by an arrow in FIG. 11A).

[3] = tested on: CHS-induced ear inflammation in K14-VEGF-A mice; assay: Contact hypersensitivity-induced ear inflammation in K14-VEGF-A mice; type: in vivo, mouse; details: day 15
Source text: A delayed-type hypersensitivity reaction was induced in the ear skin of female FVB mice that overexpress VEGF-A in the epidermis under control of the human keratin 14 promoter as previously described (Detmar et al., 1998; Kunstfeld et al., 2004; Xia et al., 2003). Heterozygous VEGF-A transgenic mice with no pre-existing inflammatory lesions were sensitized by topical application of a 2% oxazolone (4-ethoxymethylene-2-phenyl-2-oxazoline-5-one; Sigma) solution in acetone/olive oil (4:1 vol/vol) to the shaved abdomen (50 μl) and each paw (5 μl). Five days after sensitization, the ears were challenged by topical application of 20 μl of a 1% oxazolone solution. Therapy was started on day 7 and repeated at day 9, 11 and 13. […] Ear thickness was measured every other day and at day 15, mice were sacrificed and ear draining lymph nodes were weighted. The timeline for this experiment is illustrated in FIG. 13A. Each treatment event is indicated by an arrow.

T2 sequence (P01375 77-233 limits assumed, species assumed): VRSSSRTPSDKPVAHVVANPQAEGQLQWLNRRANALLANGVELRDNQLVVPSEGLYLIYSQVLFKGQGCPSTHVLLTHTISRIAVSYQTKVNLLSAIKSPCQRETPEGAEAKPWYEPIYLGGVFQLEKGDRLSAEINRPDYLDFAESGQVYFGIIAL
T1 sequence (P11276 33-2477): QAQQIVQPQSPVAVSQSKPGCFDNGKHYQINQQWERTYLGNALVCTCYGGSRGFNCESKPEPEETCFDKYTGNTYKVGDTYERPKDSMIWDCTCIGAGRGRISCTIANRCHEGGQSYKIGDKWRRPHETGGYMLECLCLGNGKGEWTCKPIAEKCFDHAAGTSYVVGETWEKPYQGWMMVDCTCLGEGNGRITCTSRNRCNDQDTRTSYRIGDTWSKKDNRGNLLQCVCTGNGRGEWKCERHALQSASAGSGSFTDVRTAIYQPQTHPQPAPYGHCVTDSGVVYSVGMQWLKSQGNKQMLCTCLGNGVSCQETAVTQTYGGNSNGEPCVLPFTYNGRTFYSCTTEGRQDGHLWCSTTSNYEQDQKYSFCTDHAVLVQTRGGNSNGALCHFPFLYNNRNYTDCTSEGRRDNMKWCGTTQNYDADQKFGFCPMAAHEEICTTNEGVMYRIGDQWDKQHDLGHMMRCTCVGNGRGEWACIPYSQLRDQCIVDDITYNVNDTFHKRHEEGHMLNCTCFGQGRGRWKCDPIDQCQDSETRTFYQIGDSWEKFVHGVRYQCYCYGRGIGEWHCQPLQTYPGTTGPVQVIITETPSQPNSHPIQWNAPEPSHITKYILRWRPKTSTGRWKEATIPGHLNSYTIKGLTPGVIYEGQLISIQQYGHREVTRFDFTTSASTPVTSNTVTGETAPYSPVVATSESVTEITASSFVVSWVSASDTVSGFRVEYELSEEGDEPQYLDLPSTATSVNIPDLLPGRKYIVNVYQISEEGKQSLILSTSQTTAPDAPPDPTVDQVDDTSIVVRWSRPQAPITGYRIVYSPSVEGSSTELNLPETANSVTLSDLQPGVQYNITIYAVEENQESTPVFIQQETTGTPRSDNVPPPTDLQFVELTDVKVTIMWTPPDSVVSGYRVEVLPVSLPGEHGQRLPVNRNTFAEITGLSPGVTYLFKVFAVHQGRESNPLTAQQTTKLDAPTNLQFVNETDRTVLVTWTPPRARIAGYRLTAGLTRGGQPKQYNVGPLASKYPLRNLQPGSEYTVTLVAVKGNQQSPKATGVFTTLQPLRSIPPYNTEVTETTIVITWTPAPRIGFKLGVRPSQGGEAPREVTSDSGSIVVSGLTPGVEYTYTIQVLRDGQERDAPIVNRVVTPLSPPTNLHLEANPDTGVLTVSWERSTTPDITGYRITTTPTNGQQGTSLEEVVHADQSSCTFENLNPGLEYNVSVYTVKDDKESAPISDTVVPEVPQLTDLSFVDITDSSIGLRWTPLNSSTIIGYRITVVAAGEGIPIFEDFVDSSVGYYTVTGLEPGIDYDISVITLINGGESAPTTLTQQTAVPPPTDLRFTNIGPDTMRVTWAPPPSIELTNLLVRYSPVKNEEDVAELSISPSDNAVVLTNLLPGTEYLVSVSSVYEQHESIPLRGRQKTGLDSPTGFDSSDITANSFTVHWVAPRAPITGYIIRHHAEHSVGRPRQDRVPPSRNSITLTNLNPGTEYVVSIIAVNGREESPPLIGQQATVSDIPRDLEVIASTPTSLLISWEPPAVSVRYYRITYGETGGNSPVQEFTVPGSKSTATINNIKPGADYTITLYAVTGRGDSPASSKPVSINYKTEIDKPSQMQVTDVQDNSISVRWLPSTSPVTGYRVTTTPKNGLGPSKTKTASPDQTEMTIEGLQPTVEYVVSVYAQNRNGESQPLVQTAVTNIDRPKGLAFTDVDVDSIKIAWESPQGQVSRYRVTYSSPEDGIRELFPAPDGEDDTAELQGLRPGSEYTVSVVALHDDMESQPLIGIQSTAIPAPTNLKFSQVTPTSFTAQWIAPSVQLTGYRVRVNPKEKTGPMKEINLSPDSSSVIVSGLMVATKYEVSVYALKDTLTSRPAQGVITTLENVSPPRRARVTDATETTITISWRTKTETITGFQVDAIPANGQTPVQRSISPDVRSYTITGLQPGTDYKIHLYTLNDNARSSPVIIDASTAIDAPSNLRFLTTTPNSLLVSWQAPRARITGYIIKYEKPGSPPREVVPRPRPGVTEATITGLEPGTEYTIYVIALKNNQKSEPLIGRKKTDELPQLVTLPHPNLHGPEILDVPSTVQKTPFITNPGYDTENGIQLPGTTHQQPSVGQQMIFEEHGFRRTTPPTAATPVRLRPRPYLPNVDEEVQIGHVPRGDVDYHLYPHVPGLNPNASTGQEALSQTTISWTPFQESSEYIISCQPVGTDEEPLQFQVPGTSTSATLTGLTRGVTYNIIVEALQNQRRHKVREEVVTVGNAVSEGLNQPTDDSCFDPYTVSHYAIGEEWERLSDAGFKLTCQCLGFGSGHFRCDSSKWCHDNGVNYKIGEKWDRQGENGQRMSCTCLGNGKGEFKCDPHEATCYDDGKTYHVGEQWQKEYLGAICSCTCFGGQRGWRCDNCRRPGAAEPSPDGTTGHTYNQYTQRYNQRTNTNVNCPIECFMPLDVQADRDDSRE

| Molecule | colocalization of staining with CD31+ blood vessels [1] | inhibition of TNF induced killing of mouse fibroblasts (TNF) | ear draining lymph nodes (weight) [2] | ear draining lymph nodes (weight) [3] |
| --- | --- | --- | --- | --- |
| B1 | colocalization of EDA and CD31 in the pancreas of diabetic mice | – | – | – |
| B2 | – | inhibits TNF induced killing of mouse fibroblasts | smaller | smaller |
